From the DeepSol protein solubility set

Assay: soluble on expression in E. coli; label from the status in PepcDB or PDB records

Sequence | soluble on expression in E. coli
MPEGILPIERDLLRFKEIVRGEVKKRVREFLTREELFGQVEGRLVSIPLPQLEIPKIVHGEPLGEGLGLGGPGEEALGPGGHIPVAELELEEFLDLVGEALRLPRLRPKGEGEVTEEALRHTTIARKGPRGLRHVRRTLKESLKRALQSGEYRPEDPLLVPEREDLRYKAPRRKPIPHAQAVVLFALDVSGSMREEELKLVKTLSFWITLWIKRHFPRLERRYLLHDAEAWEVPEEEFFKAREGGGTRISSALLLAEEILKAYPEAFYNRYLFHFSDGENWQGDTPLALEALRRLLPSLALYGYAQVESPYGQGHFLEEVQEALGGREGVALAAVRGREDLPVALKRLLGG | soluble
MPIASYAQELKLALHQYPNFPSEGILFEDFLPIFRNPGLFQKLIDAFKLHLEEAFPEVKIDYIVGLESRGFLFGPTLALALGVGFVPVRKAGKLPGECFKATYEKEYGSDLFEIQKNAIPAGSNVIIVDDIIATGGSAAAAGELVEQLEANLLEYNFVMELDFLKGRSKLNAPVFTLLNAQKEALKK | soluble
MDLFDTPLAPLQVLDDAEGGVRYWPQLLAPAVAQAAFAALRDGADWQRHQRTMYDRVVDVPRLLASYRLDAPLPPGLPLQLLLAAVQAQLPAPYNAVGLNLYRDGRDSVAMHHDKLHTLLAPHPIALLSLGTPRRMQLRAKQGATRAITLELAPGSLLAMSHASQLTHEHGIPKTTRALGERISVVFRVRPPARMAAGQHGPHWEALTQTDLEHHHHHH | soluble
RRRRPSSSRRLRGRGAAQMACPALGLEALQPLQPEPPPEPAFSEAQKWIEQVTGRSFGDKDFRTGLENGILLCELLNAIKPGLVKKINRLPTPIAGLDNIILFLRGCKELGLKESQLFDPSDLQDTSNRVTVKSLDYSRKLKNVLVTIYWLGKAANSCTSYSGTTLNLKEFEGLLAQMRKDTDDIESPKRSIRDSGYIDCWDSERSDSLSPPRHGRDDSFDSLDSFGSRSRQTPSPDVVLRGSSDGRGSDSESDLPHRKLPDVKKDDMSARRTSHGEPKSAVPFNQYLPNKSNQTAYVPAPLRKKKAEREEYRKSWSTATSPLGGERPFRYGPRTPVSDDAESTSMFDMRCEEEAAVQPHSRARQEQLQLINNQLREEDDKWQDDLARWKSRRRSVSQDLIKKEEERKKMEKLLAGEDGTSERRKSIKTYREIVQEKERRERELHEAYKNARSQEEAEGILQQYIERFTISEAVLERLEMPKILERSHSTEPNLSSFLNDPNPMKYLRQQSLPPPKFTATVETTIARASVLDTSMSAGSGSPSKTVTPKAVPMLTPKPYSQPKNSQDVLKTFKVDGKVSVNGETVHREEEKERECPTVAPAHSLTKSQMFEGVARVHGSPLELKQDNGSIEINIKKPNSVPQELAATTEKTEPNSQEDKNDGGKSRKGNIELASSEPQHFTTTVTRCSPTVAFVEFPSSPQLKNDVSEEKDQKKPENEMSGKVELVLSQKVVKPKSPEPEATLTFPFLDKMPEANQLHLPNLNSQVDSPSSEKSPVTTPQFKFWAWDPEEERRRQEKWQQEQERLLQERYQKEQDKLKEEWEKAQKEVEEEERRYYEEERKIIEDTVVPFTVSSSSADQLSTSSSMTEGSGTMNKIDLGNCQDEKQDRRWKKSFQGDDSDLLLKTRESDRLEEKGSLTEGALAHSGNPVSKGVHEDHQLDTEAGAPHCGTNPQLAQDPSQNQQTSNPTHSSEDVKPKTLPLDKSINHQIESPSERRKKSPREHFQAGPFSPCSPTPPGQSPNRSISGKKLCSSCGLPLGKGAAMIIETLNLYFHIQCFRCGICKGQLGDAVSGTDVRIRNGLLNCNDCYMRSRSAGQPTTL | soluble
MAHHHHHHMVSKTRKQRQKKKAGMQAHDGVLPPVVPSVPKSVHLKKTRPNMKGKMKIRLGLESPIDIYNGFEERKGVIWRCPTCAKACRVVGFCVDCASGVKSKSHAGQLSGRASTKKEAAQTRAPKLRIKEKSRVVKLRRKK | soluble
MSLPRLDARLKLVAAEIRGKIHADIGSDHGHLLAALLSADRIERGIAVENKLQPYRNSSATLERLNAEVRLGEGMDVIEENEIDSLSICGMGGQSIVRILSEHPNRLPKQLVLQPNQAIASVRQWARDNGYWLTDEKCTGTKRRFEVLVFSRFGPPHDPVYQKLNEVGLDESMGLMFGPWFLLRKDERLLQRLAEEQRYLQSKQNLTQTSRARVETIRRLLSSDHFLSREGHHHHHH | soluble
MGSDKIHHHHHHMDKPFRRILLIKMRFHGDMLLTTPVISSLKKNYPDAKIDVLLYQDTIPILSENPEINALYGIKNKKAKASEKIANFFHLIKVLRANKYDLIVNLTDQWMVAILVRLLNARVKISQDYHHRQSAFWRKSFTHLVPLQGGNVVESNLSVLTPLGLDSLVKQTTMSYPPASWKRMRRELDHAGVGQNYVVIQPTARQIFKCWDNAKFSAVIDALHARGYEVVLTSGPDKDDLACVNEIAQGCQTPPVTALAGKVTFPELGALIDHAQLFIGVDSAPAHIAAAVNTPLISLFGATDHIFWRPWSNNMIQFWAGDYREMPTRDQRDRNEMYLSVIPAADVIAAVDKLLPSSTTGTSL | not soluble
MSIKLFSLAKELNVGVGSLAGFLRKKGFDVEDNNPNVRIENEEFDLLLTEFGKSLPKGEAERIRKKFVKQKQGTPASAPSAKEETAGMAAKEAQVIATEVPQDMRPRFTIKGKVETEKPAEPVPSPKDKEPDTVREDKPARETAPVKEETKVVPVKEDKPKEEKPKQEEPKREEPKPEEPVQAAPVAKPVEKPVDKPQQPVMTQKPQEAETPPPAQEMEKKEDTEEVFRLKTNTQEPQVKVVGKIDLSSINSSTRPKKKTKEDRQREQNDADGKKKRKRINKAAVDVKKEAAKVSGEQGKRNAGGGNHSSGNKNNNRPAQQQSNASGGRKNNKRQSLPPKVEISDEDVQRQVKETLARLTTKKTSTTLGRGAKYRKDKRDAASRAAQDAMELNSEEQHTLKLTEFVTVSDLSNMMDVPVNEVIATCMSIGMMVGINQRLDAETINIVAEEFGFKTEFVSADLVEAIAPEEDNEEDLVA | not soluble
IKQMLLDWCRAKTRGYEHVDIQNFSSSWSDGMAFCALVHNFFPEAFDYGQLSPQNRRQNFEVAFSSAETHADCPQLLDTEDMVRLREPDWKCVYTYIQEFYRCLVQKGLVKTKKS | soluble
MRGSHHHHHHGSACVSKRRVVVTGLGMLSPVGNTVESTWKALLAGQSGISLIDHFDTSAYATKFAGLVKDFNCEDIISRKEQRKMDAFIQYGIVAGVQAMQDSGLEITEENATRIGAAIGSGIGGLGLIEENHTSLMNGGPRKISPFFVPSTIVNMVAGHLTIMYGLRGPSISIATACTSGVHNIGHAARIIAYGDADVMVAGGAEKASTPLGVGGFGAARALSTRNDNPQAASRPWDKERDGFVLGDGAGMLVLEEYEHAKKRGAKIYAELVGFGMSSDAYHMTSPPENGAGAALAMANALRDAGIEASQIGYVNAHGTSTPAGDKAEAQAVKTIFGEAASRVLVSSTKSMTGHLLGAAGAVESIYSILALRDQAVPPTINLDNPDEGCDLDFVPHEARQVSGMEYTLCNSFGFGGTNGSLIFKKI | soluble
MKFLYFGDPHIRGTNPRNRKDNYKEALIAKLREIFALAKYKGVTAIIQPGDTFDRPEVTTSVLLEFAKVLKESPVPIYTTAGNHDIYGYNLATYERTSLRVLELIVPQLTVINDPGQAQMFHQDGNHVQLTFTPYSDQIDKAGYGYSPEIIEDYESTKIHIAHGMLLDHDPPFDRYTKVQDVKTEADLVLCGHDHTGFGIYERSDGKVFVNDGSLTRLSASEAEMRRQISVLLIDVKAPRVFDLERIPLQSAKPGEEVLDRSRIEAEKKRAYAMEEFASLIQTETGEDVLVDINTIVESIAKTQSINSDVVEIALTKIAEAKEGLRT | not soluble
MIRFCSLYSGSSGNAIFLSTGKTKILIDAGLSGKKITEALVSIGEKPSELSAILVSHEHSDHIKGAGIISRKYDVPIYANENTWAAMENLIGPVSVKNKMYFNTGREFEIGDVIINPFPIPHDAVEPVGFNFFVENSKITTATDIGHMNRELLEYIEGSDFLLIESNHDIEMLKVGPYPWPLKKRILGDKGHLSNEMAGKVVAHLAERGTRCFMLGHLSKENNFPELAYETVRNILKERNIDIERDIKLSVALRDKVGQVVEILEHHHHHH | not soluble
